The record followed here is paper PMC6473903, “Isoform-Specific NO Synthesis by Arabidopsis thaliana Nitrate Reductase” (Plants, 2019).

Substrate in data set [1]: O=NO
The experiment in a line: BV:nitrite steady-state assay, A595. It counts as biochemical, Arabidopsis thaliana. The note with it: reduced benzyl viologen as electron donor, pH 7.5, 22-25 °C, anaerobic. The source says:
BV:nitrite steady-state assay, A595 on NIA1-Mo-heme

Data set [2] has as its target T1, Arabidopsis thaliana NIA2-Mo-heme fragment (residues 1-625) (Arabidopsis thaliana) (UniProt P11035).
T1 sequence: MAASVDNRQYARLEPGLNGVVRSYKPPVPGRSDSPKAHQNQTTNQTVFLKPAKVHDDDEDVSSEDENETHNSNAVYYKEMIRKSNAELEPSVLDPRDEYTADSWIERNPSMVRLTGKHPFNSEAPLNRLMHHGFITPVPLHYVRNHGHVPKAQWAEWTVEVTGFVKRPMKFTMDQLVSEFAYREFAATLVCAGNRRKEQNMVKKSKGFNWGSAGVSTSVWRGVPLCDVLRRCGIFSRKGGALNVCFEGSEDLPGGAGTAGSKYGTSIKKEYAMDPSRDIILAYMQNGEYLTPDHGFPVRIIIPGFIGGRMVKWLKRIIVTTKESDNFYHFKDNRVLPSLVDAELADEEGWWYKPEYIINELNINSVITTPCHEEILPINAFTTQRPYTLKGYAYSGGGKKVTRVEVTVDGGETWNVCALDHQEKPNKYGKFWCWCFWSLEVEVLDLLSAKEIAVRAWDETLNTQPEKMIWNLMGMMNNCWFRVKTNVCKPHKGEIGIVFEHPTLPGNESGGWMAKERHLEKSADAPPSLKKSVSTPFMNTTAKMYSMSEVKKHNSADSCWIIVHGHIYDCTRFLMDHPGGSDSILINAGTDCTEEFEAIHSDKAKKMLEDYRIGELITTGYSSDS

Substrate in data set [3]: O=NO
The experiment in a line: BV:nitrite steady-state assay, A595. It counts as biochemical, Arabidopsis thaliana. The note with it: reduced benzyl viologen as electron donor, pH 7.5, 22-25 °C, anaerobic. An excerpt:
BV:nitrite steady-state assay, A595 on NIA1-Mo
The source holds these as a separate data set.

For data set [4], the target named is T2, Arabidopsis thaliana NIA1-Mo-heme fragment (residues 1-627) (Arabidopsis thaliana) (UniProt P11832).
T2 sequence: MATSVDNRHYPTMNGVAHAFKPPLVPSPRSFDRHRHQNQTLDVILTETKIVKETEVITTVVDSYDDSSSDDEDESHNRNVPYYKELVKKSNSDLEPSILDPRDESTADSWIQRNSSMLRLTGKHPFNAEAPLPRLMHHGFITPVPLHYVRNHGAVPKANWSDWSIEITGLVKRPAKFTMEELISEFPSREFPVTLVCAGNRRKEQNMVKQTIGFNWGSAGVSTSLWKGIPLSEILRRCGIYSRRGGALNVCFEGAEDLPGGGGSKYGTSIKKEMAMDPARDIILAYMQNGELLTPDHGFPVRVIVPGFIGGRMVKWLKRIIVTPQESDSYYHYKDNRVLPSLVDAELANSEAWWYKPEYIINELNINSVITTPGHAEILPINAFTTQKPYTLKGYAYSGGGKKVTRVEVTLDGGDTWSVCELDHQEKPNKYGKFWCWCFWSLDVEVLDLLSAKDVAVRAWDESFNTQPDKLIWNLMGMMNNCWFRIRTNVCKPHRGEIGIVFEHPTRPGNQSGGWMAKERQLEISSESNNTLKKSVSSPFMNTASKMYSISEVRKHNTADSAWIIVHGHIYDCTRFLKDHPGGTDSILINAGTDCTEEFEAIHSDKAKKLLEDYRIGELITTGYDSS

B1: NIA1-Mo-heme (Arabidopsis thaliana) (protein)
chain: MATSVDNRHYPTMNGVAHAFKPPLVPSPRSFDRHRHQNQTLDVILTETKIVKETEVITTVVDSYDDSSSDDEDESHNRNVPYYKELVKKSNSDLEPSILDPRDESTADSWIQRNSSMLRLTGKHPFNAEAPLPRLMHHGFITPVPLHYVRNHGAVPKANWSDWSIEITGLVKRPAKFTMEELISEFPSREFPVTLVCAGNRRKEQNMVKQTIGFNWGSAGVSTSLWKGIPLSEILRRCGIYSRRGGALNVCFEGAEDLPGGGGSKYGTSIKKEMAMDPARDIILAYMQNGELLTPDHGFPVRVIVPGFIGGRMVKWLKRIIVTPQESDSYYHYKDNRVLPSLVDAELANSEAWWYKPEYIINELNINSVITTPGHAEILPINAFTTQKPYTLKGYAYSGGGKKVTRVEVTLDGGDTWSVCELDHQEKPNKYGKFWCWCFWSLDVEVLDLLSAKDVAVRAWDESFNTQPDKLIWNLMGMMNNCWFRIRTNVCKPHRGEIGIVFEHPTRPGNQSGGWMAKERQLEISSESNNTLKKSVSSPFMNTASKMYSISEVRKHNTADSAWIIVHGHIYDCTRFLKDHPGGTDSILINAGTDCTEEFEAIHSDKAKKLLEDYRIGELITTGYDSS
notes: N-terminal Moco + hinge 1 + heme domain fragment, residues 1-627; pQE80L, E. coli, Ni-NTA (IMAC) and SEC purified
Usually Km stands for the substrate concentration at which the rate is half of its maximum. By kcat is commonly meant the number of substrate molecules converted per active site and unit of time at saturation. As to B1, in data set [1], the Km is on record as 35.5 ± 2.7 µM and the kcat was 19.8 ± 4.8 s⁻¹.

B2: Arabidopsis thaliana NIA2-FAD fragment (residues 626-917) (domain or fragment)
chain: SSPNNSVHGSSAVFSLLAPIGEATPVRNLALVNPRAKVPVQLVEKTSISHDVRKFRFALPVEDMVLGLPVGKHIFLCATINDKLCLRAYTPSSTVDVVGYFELVVKIYFGGVHPRFPNGGLMSQYLDSLPIGSTLEIKGPLGHVEYLGKGSFTVHGKPKFADKLAMLAGGTGITPVYQIIQAILKDPEDETEMYVIYANRTEEDILLREELDGWAEQYPDRLKVWYVVESAKEGWAYSTGFISEAIMREHIPDGLDGSALAMACGPPPMIQFAVQPNLEKMQYNIKEDFLIF
Consider B2, for which, in data set [2], the apparent kcat of the steady-state NADH:nitrate assay of re-constituted NIA2 (100 nM NIA2-Mo-heme + 5 µM NIA2-FAD, ratio 1:50) is 13.4 s⁻¹.

B3: NIA1-Mo (Arabidopsis thaliana) (protein)
chain: MATSVDNRHYPTMNGVAHAFKPPLVPSPRSFDRHRHQNQTLDVILTETKIVKETEVITTVVDSYDDSSSDDEDESHNRNVPYYKELVKKSNSDLEPSILDPRDESTADSWIQRNSSMLRLTGKHPFNAEAPLPRLMHHGFITPVPLHYVRNHGAVPKANWSDWSIEITGLVKRPAKFTMEELISEFPSREFPVTLVCAGNRRKEQNMVKQTIGFNWGSAGVSTSLWKGIPLSEILRRCGIYSRRGGALNVCFEGAEDLPGGGGSKYGTSIKKEMAMDPARDIILAYMQNGELLTPDHGFPVRVIVPGFIGGRMVKWLKRIIVTPQESDSYYHYKDNRVLPSLVDAELANSEAWWYKPEYIINELNINSVITTPGHAEILPINAFTTQKPYTLKGYAYSGGGKKVTRVEVTLDGGDTWSVCELDHQEKPNKYGKFWCWCFWSLDVEVLDLLSAKDVAVRAWDESFNTQPDKLIWNLMGMMNNCWFRIRT
notes: Moco domain only, residues 1-488; His-tagged, pQE80L, E. coli TP1004
As for B3, in data set [3], the Km was 35.3 ± 3.2 µM and the kcat stood at 138 ± 2.5 s⁻¹.

B4: Arabidopsis thaliana NIA1-FAD fragment (residues 628-917) (domain or fragment)
chain: PNVSVHGASNFGPLLAPIKELTPQKNIALVNPREKIPVRLIEKTSISHDVRKFRFALPSEDQQLGLPVGKHVFVCANINDKLCLRAYTPTSAIDAVGHIDLVVKVYFKDVHPRFPNGGLMSQHLDSLPIGSMIDIKGPLGHIEYKGKGNFLVSGKPKFAKKLAMLAGGTGITPIYQIIQSILSDPEDETEMYVVYANRTEDDILVREELEGWASKHKERLKIWYVVEIAKEGWSYSTGFITEAVLREHIPEGLEGESLALACGPPPMIQFALQPNLEKMGYNVKEDLLIF
As for B4, the apparent kcat of the steady-state NADH:nitrate assay of re-constituted NIA1 (100 nM NIA1-Mo-heme + 5 µM NIA1-FAD, ratio 1:50) in data set [4] stood at 9.6 s⁻¹.
